Measured values published in IntAct's records for PubMed 17581628.

B1: Ras-related protein Rab-5A (Homo sapiens), P20339 (parent)
chain: MASRGATRPNGPNTGNKICQFKLVLLGESAVGKSSLVLRFVKGQFHEFQESTIGAAFLTQTVCLDDTTVKFEIWDTAGQERYHSLAPMYYRGAQAAIVVYDITNEESFARAKNWVKELQRQASPNIVIALSGNKADLANKRAVDFQEAQSYADDNSLLFMETSAKTSMNVNEIFMAIAKKLPKNEPQNPGANSARGRGVDLTEPTQPTRNQCCSN
partner: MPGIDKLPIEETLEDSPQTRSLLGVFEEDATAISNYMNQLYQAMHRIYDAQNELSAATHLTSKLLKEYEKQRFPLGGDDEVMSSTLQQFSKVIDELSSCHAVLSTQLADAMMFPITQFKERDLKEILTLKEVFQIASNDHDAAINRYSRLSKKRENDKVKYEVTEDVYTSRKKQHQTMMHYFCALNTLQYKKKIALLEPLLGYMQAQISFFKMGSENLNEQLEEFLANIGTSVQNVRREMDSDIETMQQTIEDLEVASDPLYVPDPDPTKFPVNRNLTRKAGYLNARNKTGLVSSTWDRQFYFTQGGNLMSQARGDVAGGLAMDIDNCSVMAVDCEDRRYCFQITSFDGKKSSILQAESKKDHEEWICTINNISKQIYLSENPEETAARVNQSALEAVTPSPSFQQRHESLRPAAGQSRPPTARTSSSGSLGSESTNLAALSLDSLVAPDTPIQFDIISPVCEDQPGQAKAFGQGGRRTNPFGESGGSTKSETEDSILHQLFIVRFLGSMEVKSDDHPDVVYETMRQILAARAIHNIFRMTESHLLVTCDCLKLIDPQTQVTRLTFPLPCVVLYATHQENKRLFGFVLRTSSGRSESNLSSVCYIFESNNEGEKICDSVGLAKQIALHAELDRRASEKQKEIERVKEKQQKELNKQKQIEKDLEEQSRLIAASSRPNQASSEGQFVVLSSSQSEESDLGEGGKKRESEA
B2: DCC-interacting protein 13-alpha (Homo sapiens), Q9UKG1 (parent)
chain: B1 partner

Variants of: B1
Conditions: with dp13a_human APPL1, Q9UKG1

effect of a mutation on the interaction | Variant
decreasing interaction | MASRGATRPNGPNTGNKICQFKLVLLGESAVGKSSLVLRFVKGQFHEFQESTIGAAFLTQTVCLDDTTVKFEIWDTAGQERYHSLAPMRYRGAQAAIVVYDITNEESFARAKNWVKELQRQASPNIVIALSGNKADLANKRAVDFQEAQSYADDNSLLFMETSAKTSMNVNEIFMAIAKKLPKNEPQNPGANSARGRGVDLTEPTQPTRNQCCSN [Y89R]

Variants of: B1
Conditions: with dp13a_human APPL1, Q9UKG1
Remark: another data set of the same source

effect of a mutation on the interaction | Variant
decreasing interaction | MASRGATRPNGPNTGNKICQFKLVLLGESAVGKSSLVLRFVKGQFHENQESTIGAAFLTQTVCLDDTTVKFEIWDTAGQERYHSLAPMYYRGAQAAIVVYDITNEESFARAKNWVKELQRQASPNIVIALSGNKADLANKRAVDFQEAQSYADDNSLLFMETSAKTSMNVNEIFMAIAKKLPKNEPQNPGANSARGRGVDLTEPTQPTRNQCCSN [F48N]

Variants of: B1
Conditions: with dp13a_human APPL1, Q9UKG1
Remark: another data set of the same source

effect of a mutation on the interaction | Variant
disrupting interaction | MASRGATRPNGPNTGNKICQFKLVLLGESAVGKSSLVLRFVKGQFHEFQESTIGAAFLTQTVCLDDTTVKFEIWDTAGQERYHSRAPMYYRGAQAAIVVYDITNEESFARAKNWVKELQRQASPNIVIALSGNKADLANKRAVDFQEAQSYADDNSLLFMETSAKTSMNVNEIFMAIAKKLPKNEPQNPGANSARGRGVDLTEPTQPTRNQCCSN [L85R]

Variants of: B1
Conditions: with dp13a_human APPL1, Q9UKG1
Remark: another data set of the same source

effect of a mutation on the interaction | Variant
disrupting interaction | MASRGATRPNGPNTGNKICQFKLVLLGESAVGKSSLVLRFVKGQFHEFQESTIGAAFLTQTVCLDDTTVKFEIRDTAGQERYHSLAPMYYRGAQAAIVVYDITNEESFARAKNWVKELQRQASPNIVIALSGNKADLANKRAVDFQEAQSYADDNSLLFMETSAKTSMNVNEIFMAIAKKLPKNEPQNPGANSARGRGVDLTEPTQPTRNQCCSN [W74R]

Variants of: B1
Conditions: with dp13a_human APPL1, Q9UKG1
Remark: another data set of the same source

effect of a mutation on the interaction | Variant
decreasing interaction | MASRGATRPNGPNTGNKICQFKLVLLGESAVGKSSLVLRFVEGQFHEFQESTIGAAFLTQTVCLDDTTVKFEIWDTAGQERYHSLAPMYYRGAQAAIVVYDITNEESFARAKNWVKELQRQASPNIVIALSGNKADLANKRAVDFQEAQSYADDNSLLFMETSAKTSMNVNEIFMAIAKKLPKNEPQNPGANSARGRGVDLTEPTQPTRNQCCSN [K42E]

Variants of: B1
Conditions: with dp13a_human APPL1, Q9UKG1
Remark: another data set of the same source

effect of a mutation on the interaction | Variant
decreasing interaction | MASRGATRPNGPNTGNKICQFKLVLLGESAVGKSSLVLRFVKGQFHEFQESTIGAAFLTQTVCLDDTTVKFEIWDTAGQERYHSLAPSYYRGAQAAIVVYDITNEESFARAKNWVKELQRQASPNIVIALSGNKADLANKRAVDFQEAQSYADDNSLLFMETSAKTSMNVNEIFMAIAKKLPKNEPQNPGANSARGRGVDLTEPTQPTRNQCCSN [M88S]

Variants of: B1
Conditions: with dp13a_human APPL1, Q9UKG1
Remark: another data set of the same source

effect of a mutation on the interaction | Variant
disrupting interaction | MASRGATRPNGPNTGNKICQFKLVLLGESAVGKSSLVLRFVKGQFDEFQESTIGAAFLTQTVCLDDTTVKFEIWDTAGQERYHSLAPMYYRGAQAAIVVYDITNEESFARAKNWVKELQRQASPNIVIALSGNKADLANKRAVDFQEAQSYADDNSLLFMETSAKTSMNVNEIFMAIAKKLPKNEPQNPGANSARGRGVDLTEPTQPTRNQCCSN [H46D]

Variants of: B2
Conditions: with rab21_human RAB21, Q9UL25
Chain of rab21_human RAB21, Q9UL25 (Q9UL25 whole entry): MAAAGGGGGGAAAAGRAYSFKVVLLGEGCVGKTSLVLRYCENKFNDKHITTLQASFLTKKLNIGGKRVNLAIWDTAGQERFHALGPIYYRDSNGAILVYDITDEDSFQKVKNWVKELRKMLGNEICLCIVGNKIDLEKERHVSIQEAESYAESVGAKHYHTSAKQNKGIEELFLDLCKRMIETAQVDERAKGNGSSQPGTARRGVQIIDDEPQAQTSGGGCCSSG

effect of a mutation on the interaction | Variant
disrupting interaction | D348K

Variants of: B2
Conditions: with rab21_human RAB21, Q9UL25
Remark: another data set of the same source

effect of a mutation on the interaction | Variant
disrupting interaction | G319R

Variants of: B2
Conditions: with rab5a_human RAB5A

effect of a mutation on the interaction | Variant
disrupting interaction | G319R

Variants of: B2
Conditions: with rab5a_human RAB5A
Remark: another data set of the same source

effect of a mutation on the interaction | Variant
disrupting interaction | N308D

Variants of: B2
Conditions: with rab21_human RAB21, Q9UL25
Remark: another data set of the same source

effect of a mutation on the interaction | Variant
disrupting interaction | N308D

Variants of: B2
Conditions: with rab21_human RAB21, Q9UL25
Remark: another data set of the same source

effect of a mutation on the interaction | Variant
disrupting interaction | D324A

Variants of: B2
Conditions: with rab5a_human RAB5A
Remark: another data set of the same source

effect of a mutation on the interaction | Variant
disrupting interaction | D324A

Variants of: B2
Conditions: with rab5a_human RAB5A
Remark: another data set of the same source

effect of a mutation on the interaction | Variant
decreasing interaction | V25D

Variants of: B2
Conditions: with rab21_human RAB21, Q9UL25
Remark: another data set of the same source

effect of a mutation on the interaction | Variant
decreasing interaction | V25D

Variants of: B2
Conditions: with rab21_human RAB21, Q9UL25
Remark: another data set of the same source

effect of a mutation on the interaction | Variant
decreasing interaction | L321D

Variants of: B2
Conditions: with rab5a_human RAB5A
Remark: another data set of the same source

effect of a mutation on the interaction | Variant
disrupting interaction | L321D

Variants of: B2
Conditions: with rab5a_human RAB5A
Remark: another data set of the same source

effect of a mutation on the interaction | Variant
disrupting interaction | A318D

Variants of: B2
Conditions: with rab21_human RAB21, Q9UL25
Remark: another data set of the same source

effect of a mutation on the interaction | Variant
decreasing interaction | E28K

Variants of: B2
Conditions: with rab21_human RAB21, Q9UL25
Remark: another data set of the same source

effect of a mutation on the interaction | Variant
disrupting interaction | D316R

Variants of: B2
Conditions: with rab5a_human RAB5A
Remark: another data set of the same source

effect of a mutation on the interaction | Variant
disrupting interaction | M310K

Variants of: B2
Conditions: with rab21_human RAB21, Q9UL25
Remark: another data set of the same source

effect of a mutation on the interaction | Variant
disrupting interaction | M310K
